From article PMC6994669

Biological target: PTPδ D2-His6 F1503A (mouse)
Assay: SPR; Biacore T200, 25 °C, 10 mM Hepes-NaOH pH 7.5, 150 mM NaCl, 0.005% Tween-20; wild-type or mutant PTPδ D2-His6 amine-coupled on a CM5 chip; wild-type or mutant Liprin-α3 tSAM injected, twofold dilutions from 40 µM to 39 nM; equilibrium KD

Chain of mouse Liprin-α3 tSAM (residues 808–1114) (P60469 808-1114): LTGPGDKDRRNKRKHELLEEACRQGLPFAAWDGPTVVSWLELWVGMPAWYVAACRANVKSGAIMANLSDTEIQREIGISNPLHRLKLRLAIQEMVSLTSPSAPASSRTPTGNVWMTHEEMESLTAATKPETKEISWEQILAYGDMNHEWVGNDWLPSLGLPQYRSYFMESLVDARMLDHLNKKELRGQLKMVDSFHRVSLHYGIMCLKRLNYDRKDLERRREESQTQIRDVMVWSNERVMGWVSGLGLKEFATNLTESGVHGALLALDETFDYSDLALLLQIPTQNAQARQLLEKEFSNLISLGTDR

mouse Liprin-α3 tSAM (residues 808–1114) (from UniProt P60469 808-1114) (domain or fragment)
Kd: 8.3 µM
